What was measured:
HER2 [1] = biological target: T1, HER2 (UniProt P04626 23-1255, limits assumed); assay: cell-based or functional assay
HER2 [2] = biological target: T1, HER2; assay: flow cytometry on SKBR3 cells (HER2 and Lewis Y on the cells), PE anti-human Fc detection, half maximal staining intensity
Procedure: SKBR3 cells are cultured in RPMI1640 containing 10% fetal calf serum an 8 mM glutamine. The cells are harvested by trypsination. A total of 1×10⁵ cells in PBS containing 0.1% BSA are incubated with dilutions of the bispecific molecules or control proteins (anti-Lewis Y antibody IGN311 and anti-HER Fcabs respectively) in the range of 1 mM to 0.1 nM and incubated on ice for 20 min. After removal of excess of bispecific molecules or control proteins cells are incubated for 10 min on ice with phycoerythrin-R-coupled polyclonal anti-human FC antibody (Sigma). Measurements are performed on a FACS analyzer (FACS Calibur).
The half maximal staining intensity (EC50) is reached for molecule no. 1 at around 1 nM and for molecule no. 2 at around 10 nM.

| Binder | half maximal (50%) immediate cytotoxicity (EC50), 51Cr release from SKBR3 cells (HER2 [1]) | EC50 (HER2 [2]) |
| --- | --- | --- |
| molecule no. 1 (IGN311/Fcab 10-03-6) (bispecific antibody, human IgG1, kappa, IgG: humanized anti-Lewis Y antibody IGN311 whose CH3 domain is replaced by the CH3 of the anti-HER2 Fcab 10-03-6) heavy: EVQLLESGGGLVQPGGSLRLSCAASGFTFSDYYMYWVRQAPEKRLEWVAYISNGGGSSHYVDSVKGRFTISRDNAKNTLYLQMNSLRAEDTALYHCARGMDYGAWFAYWGQGTLVTVSSASTKGPSVFPLAPSSKSTSGGTAALGCLVKDYFPEPVTVSWNSGALTSGVHTFPAVLQSSGLYSLSSVVTVPSSSLGTQTYICNVNHKPSNTKVDKKVEPKSCDKTHTCPPCPAPELLGGPSVFLFPPKPKDTLMISRTPEVTCVVVDVSHEDPEVKFNWYVDGVEVHNAKTKPREEQYNSTYRVVSVLTVLHQDWLNGKEYKCKVSNKALPAPIEKTISKAKGQPREPQVYTLPPSRDEYLHGDVSLTCLVKGFYPSDIAVEWESNGQPENNYKTTPPVLDSDGSFFLYSKLTVARYSPRMLRWAHGNVFSCSVMHEALHNHYTQKSLSLSPGK light: DIVMTQSPLSLPVTPGEPASISCRSSQSIVHSNGNTYLEWYLQKPGQSPQLLISKVSNRFSGVPDRFSGSGSGTDFTLKISRVEAEDVGVYYCFQGSHVPFTFGQGTKLEIKRTVAAPSVFIFPPSDEQLKSGTASVVCLLNNFYPREAKVQWKVDNALQSGNSQESVTEQDSKDSTYSLSSTLTLSKADYEKHKVYACEVTHQGLSSPVTKSFNRGEC | ~1 nM | ~1 nM |
| molecule no. 2 (IGN311/Fcab H561G3M1G4) (bispecific antibody, human IgG1, kappa, IgG: humanized anti-Lewis Y antibody IGN311 whose CH3 domain is replaced by the CH3 of the anti-HER2 Fcab H561G3M1G4) heavy: EVQLLESGGGLVQPGGSLRLSCAASGFTFSDYYMYWVRQAPEKRLEWVAYISNGGGSSHYVDSVKGRFTISRDNAKNTLYLQMNSLRAEDTALYHCARGMDYGAWFAYWGQGTLVTVSSASTKGPSVFPLAPSSKSTSGGTAALGCLVKDYFPEPVTVSWNSGALTSGVHTFPAVLQSSGLYSLSSVVTVPSSSLGTQTYICNVNHKPSNTKVDKKVEPKSCDKTHTCPPCPAPELLGGPSVFLFPPKPKDTLMISRTPEVTCVVVDVSHEDPEVKFNWYVDGVEVHNAKTKPREEQYNSTYRVVSVLTVLHQDWLNGKEYKCKVSNKALPAPIEKTISKAKGQPREPQVYTLPPSRDEFFTYWVSLTCLVKGFYPSDIAVEWESNGQPENNYKTTPPVLDSDGSFFLYSKLTVDRRRWTAGNVFSCSVMHEALHNHYTQKSLSLSPGK light: DIVMTQSPLSLPVTPGEPASISCRSSQSIVHSNGNTYLEWYLQKPGQSPQLLISKVSNRFSGVPDRFSGSGSGTDFTLKISRVEAEDVGVYYCFQGSHVPFTFGQGTKLEIKRTVAAPSVFIFPPSDEQLKSGTASVVCLLNNFYPREAKVQWKVDNALQSGNSQESVTEQDSKDSTYSLSSTLTLSKADYEKHKVYACEVTHQGLSSPVTKSFNRGEC | ~10 nM | ~10 nM |
